Target: T1, recombinant human CD70 protein (Acrobiosystems: CDL-H82Q9) (human, UniProt P32970 39-193)
T1 construct: Bought from Acrobiosystems; The whole natural entry is named; also called human CD70His fusion protein; recombinant human CD70 antigen having a C-terminal human IgG Fc tag
T1 sequence (looked up): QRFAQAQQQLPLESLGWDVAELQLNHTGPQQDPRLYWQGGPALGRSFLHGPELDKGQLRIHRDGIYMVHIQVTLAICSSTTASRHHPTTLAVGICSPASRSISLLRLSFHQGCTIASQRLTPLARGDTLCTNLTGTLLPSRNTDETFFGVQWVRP
Assay: flow cytometry: CAR on CD70-knockout T cells stained with biotinylated human CD70 protein (100 µg/ml) and PE-Streptavidin
Protocol: The expression of the CAR targeting CD70 prepared in example 5 in T cells in each group was detected by fluorescence antibody staining and flow cytometry. The specific steps were as follows: CAR-T cells targeting CD70 with lentivirus infection for 48 h, T cells without lentivirus infection and T-KO cells without lentivirus infection were respectively collected by centrifugation; biotinylated human CD70 protein (100 μg/ml) (Acrobiosystems: CDL-H82Q9) was added; and the mixture was incubated at 4° C. in the dark for 30 min, and then washed once with PBS after the incubation. After resuspending in an appropriate volume of PBS, a second antibody PE-Streptavidin (BD Biosciences: 554061) was added to the cells, and the mixture was incubated at 4° C. in the dark for 20 min, washed once with PBS and then resuspended in an appropriate volume of PBS. Finally, the expression efficiency of the CAR targeting CD70 on the surface of the T cells in which CD70 was knocked out was detected using a flow cytometer.

B1: CD70KO-CAR-L1 (receptor)
chimeric antigen receptor chain: EVQVVESGGGLVQAGGSLRLSCAASGRTFSSYAMGWVRQAPGKDQEFVAAINWSDGSTYYADSVKGRFTIARDNAKNTAFLQMNSLKPEDTAVYYCAAGCCGVADAPLNALDAWGQGTLVTVSSTTTPAPRPPTPAPTIASQPLSLRPEACRPAAGGAVHTRGLDFACDIYIWAPLAGTCGVLLLSLVITLYCKRGRKKLLYIFKQPFMRPVQTTQEEDGCSCRFPEEEEGGCELRVKFSRSADAPAYKQGQNQLYNELNLGRREEYDVLDKRRGRDPEMGGKPRRKNPQEGLYNELQKDKMAEAYSEIGMKGERRRGKGHDGLYQGLSTATKDTYDALHMQALPPR
notes: The sheet names the CD70-knockout T cells that carry CD70-CAR-L1; also called CD70-CAR-L1
  POS (% of cells in the CD70-PE positive gate): 82.5%

B2: CD70KO-CAR-5H (receptor)
chimeric antigen receptor chain: EVQLVESGGGMVQAGGSLRLSCAAPGKIFSFYFMGWYRQAPGKQRELVALITGDGRTNYADSVEGRFTISRDNAKNTVYLQMNSLKPEDTAVYYCYADVFARAGRDEYWGQGTQVSVSSTTTPAPRPPTPAPTIASQPLSLRPEACRPAAGGAVHTRGLDFACDIYIWAPLAGTCGVLLLSLVITLYCKRGRKKLLYIFKQPFMRPVQTTQEEDGCSCRFPEEEEGGCELRVKFSRSADAPAYKQGQNQLYNELNLGRREEYDVLDKRRGRDPEMGGKPRRKNPQEGLYNELQKDKMAEAYSEIGMKGERRRGKGHDGLYQGLSTATKDTYDALHMQALPPR
notes: The sheet names the CD70-knockout T cells that carry CD70-CAR-5H; also called CD70-CAR-5H
  POS (% of cells in the CD70-PE positive gate): 58.9%

B3: CD70KO-CAR-7D (receptor)
chimeric antigen receptor chain: EVQLVESGGGLVQAGGSLRLSCAASGFTFDDYAIGWFRQAPGKEQEGVSCIRRSDGSTWYANSVKGRFTISNDNAKNTVYLQMNSLKPEDTAVYYCAVDRYGQSWHEGRGALDAWGQGTLVTVSSTTTPAPRPPTPAPTIASQPLSLRPEACRPAAGGAVHTRGLDFACDIYIWAPLAGTCGVLLLSLVITLYCKRGRKKLLYIFKQPFMRPVQTTQEEDGCSCRFPEEEEGGCELRVKFSRSADAPAYKQGQNQLYNELNLGRREEYDVLDKRRGRDPEMGGKPRRKNPQEGLYNELQKDKMAEAYSEIGMKGERRRGKGHDGLYQGLSTATKDTYDALHMQALPPR
notes: The sheet names the CD70-knockout T cells that carry CD70-CAR-7D; also called CD70-CAR-7D
  POS (% of cells in the CD70-PE positive gate): 78.4%

B4: CD70KO-CAR-5A (receptor)
chimeric antigen receptor chain: EVQLVESGGGLVQAGGSLRLSCAASESIFNNYVMAWYRQPPGKQREAVAQISTDGSAYYQDRVKGRFTISRDNAKNLVNLQMSSLKPEDTAVYYCTAGLQYWGQGTQVTVSSTTTPAPRPPTPAPTIASQPLSLRPEACRPAAGGAVHTRGLDFACDIYIWAPLAGTCGVLLLSLVITLYCKRGRKKLLYIFKQPFMRPVQTTQEEDGCSCRFPEEEEGGCELRVKFSRSADAPAYKQGQNQLYNELNLGRREEYDVLDKRRGRDPEMGGKPRRKNPQEGLYNELQKDKMAEAYSEIGMKGERRRGKGHDGLYQGLSTATKDTYDALHMQALPPR
notes: The sheet names the CD70-knockout T cells that carry CD70-CAR-5A; also called CD70-CAR-5A
  POS (% of cells in the CD70-PE positive gate): 74.9%

B5: CD70KO-CAR-3H (receptor)
chimeric antigen receptor chain: QLQLVESGGGLVQPGGSLRLSCAASGNILRFNAVGWYRQAPGKQRDLVAAMAGARTNYADSVEGRFTISGNNANNTVYLQMNSLKPEDTGVYYCGADRVYGPPYEYGGRGTQVTVLSTTTPAPRPPTPAPTIASQPLSLRPEACRPAAGGAVHTRGLDFACDIYIWAPLAGTCGVLLLSLVITLYCKRGRKKLLYIFKQPFMRPVQTTQEEDGCSCRFPEEEEGGCELRVKFSRSADAPAYKQGQNQLYNELNLGRREEYDVLDKRRGRDPEMGGKPRRKNPQEGLYNELQKDKMAEAYSEIGMKGERRRGKGHDGLYQGLSTATKDTYDALHMQALPPR
notes: The sheet names the CD70-knockout T cells that carry CD70-CAR-3H; also called CD70-CAR-3H
  POS (% of cells in the CD70-PE positive gate): 70.8%

B6: CD70KO-CAR-5B (receptor)
chimeric antigen receptor chain: QVQLVESGGGLVQAGGSLRLSCAASGFTFDDYAIGWFRQAPGKEPEGVSCFRSSDGNIYYSDSVRGRFTISSDNAKNTVYLQMNRLKPEDTAVYYCAAYSVLLRPWVLCEGSYDYWGQGTQVTVSSTTTPAPRPPTPAPTIASQPLSLRPEACRPAAGGAVHTRGLDFACDIYIWAPLAGTCGVLLLSLVITLYCKRGRKKLLYIFKQPFMRPVQTTQEEDGCSCRFPEEEEGGCELRVKFSRSADAPAYKQGQNQLYNELNLGRREEYDVLDKRRGRDPEMGGKPRRKNPQEGLYNELQKDKMAEAYSEIGMKGERRRGKGHDGLYQGLSTATKDTYDALHMQALPPR
notes: The sheet names the CD70-knockout T cells that carry CD70-CAR-5B; also called CD70-CAR-5B
  POS (% of cells in the CD70-PE positive gate): 57.8%

B7: CD70KO-CAR-1G (receptor)
chimeric antigen receptor chain: QLQLVESGGGLVQLGGSLTLSCTASGIIFNSDYVGWYRQAPGSDRELVALTSNMRTNYADSVEGRFTISRDNAKNTVYLQMNSLKPEDTAVYYCNVNRMTSYGPRDYWGQGTQVTVSSTTTPAPRPPTPAPTIASQPLSLRPEACRPAAGGAVHTRGLDFACDIYIWAPLAGTCGVLLLSLVITLYCKRGRKKLLYIFKQPFMRPVQTTQEEDGCSCRFPEEEEGGCELRVKFSRSADAPAYKQGQNQLYNELNLGRREEYDVLDKRRGRDPEMGGKPRRKNPQEGLYNELQKDKMAEAYSEIGMKGERRRGKGHDGLYQGLSTATKDTYDALHMQALPPR
notes: The sheet names the CD70-knockout T cells that carry CD70-CAR-1G; also called CD70-CAR-1G
  POS (% of cells in the CD70-PE positive gate): 57.5%

B8: CD70KO-CAR-L2 (receptor)
chimeric antigen receptor chain: EVQLVESGGGLVQAGGSLRLSCAASGFTVDDYVIGWFRQAPGKEHEGVSCISSNDGSTWYADSVKGRFTISSDNAKNTMYLQMNSLKPEDTAVYYCAAKYAPYGLEYWEGGMDYWGKGTLVTVSSTTTPAPRPPTPAPTIASQPLSLRPEACRPAAGGAVHTRGLDFACDIYIWAPLAGTCGVLLLSLVITLYCKRGRKKLLYIFKQPFMRPVQTTQEEDGCSCRFPEEEEGGCELRVKFSRSADAPAYKQGQNQLYNELNLGRREEYDVLDKRRGRDPEMGGKPRRKNPQEGLYNELQKDKMAEAYSEIGMKGERRRGKGHDGLYQGLSTATKDTYDALHMQALPPR
notes: The sheet names the CD70-knockout T cells that carry CD70-CAR-L2; also called CD70-CAR-L2
  POS (% of cells in the CD70-PE positive gate): 62.6%

B9: CD70KO-CAR-1E (receptor)
chimeric antigen receptor chain: EVQVVESGGGLVQAGGSLRLSCAASGFAFDDYAIGWFRQAPGKEQERVSCMSSSDGSTYYADSVKGRFTISSDNAKNTVYLQMNSLKPEDTAVYYCAAGVNYYREDGCPGALDYWGQGTQVTVSSTTTPAPRPPTPAPTIASQPLSLRPEACRPAAGGAVHTRGLDFACDIYIWAPLAGTCGVLLLSLVITLYCKRGRKKLLYIFKQPFMRPVQTTQEEDGCSCRFPEEEEGGCELRVKFSRSADAPAYKQGQNQLYNELNLGRREEYDVLDKRRGRDPEMGGKPRRKNPQEGLYNELQKDKMAEAYSEIGMKGERRRGKGHDGLYQGLSTATKDTYDALHMQALPPR
notes: The sheet names the CD70-knockout T cells that carry CD70-CAR-1E; also called CD70-CAR-1E
  POS (% of cells in the CD70-PE positive gate): 63.9%
